Tests used:
Experiment in all cases: cell-based or functional assay
[1] = target: E. coli expressed recombinant human microplasmin Arg610Ala (human) (UniProt P00747)
[2] = target: E. coli expressed recombinant human microplasmin, wild type (human) (UniProt P00747)
[3] = target: E. coli expressed recombinant human microplasmin K642A (Table 3) (human) (UniProt P00747)
[4] = target: E. coli expressed recombinant human microplasmin Lys607Ala (human) (UniProt P00747)
[5] = target: E. coli expressed recombinant human microplasmin Arg582Ala (human) (UniProt P00747)
[6] = target: E. coli expressed recombinant human microplasmin Met585Ala (human) (UniProt P00747)
[7] = target: E. coli expressed recombinant human microplasmin Pro642Ala (human) (UniProt P00747)
[8] = target: E. coli expressed recombinant human microplasmin Gly739Ala (human) (UniProt P00747)
[9] = target: E. coli expressed recombinant human microplasmin Glu641Ala (human) (UniProt P00747)
[10] = target: E. coli expressed recombinant human microplasmin Ser608Ala (human) (UniProt P00747)
[11] = target: E. coli expressed recombinant human microplasmin Phe587Ala (human) (UniProt P00747)

IC50 (relative to the µPlm WT enzyme) (fold relative to WT) [1]: 1.7
IC50 (relative to the µPlm WT enzyme) (fold relative to WT) [2]: 1
IC50 (relative to the µPlm WT enzyme) (fold relative to WT) [3]: 1
IC50 (relative to the µPlm WT enzyme) (fold relative to WT) [4]: 1
IC50 (relative to the µPlm WT enzyme) (fold relative to WT) [5]: 1.6
IC50 (relative to the µPlm WT enzyme) (fold relative to WT) [6]: 1.2
IC50 of α2-AP inhibition (fold of WT) (fold relative to WT) [7]: 2
α2-AP inhibition of µPlm activity [8]: > 400 nM
IC50 (relative to the µPlm WT enzyme) (fold relative to WT) [9]: 1.6
IC50 (relative to the µPlm WT enzyme) (fold relative to WT) [10]: 1.2
IC50 (relative to the µPlm WT enzyme) (fold relative to WT) [11]: 3.9
activity remaining in the presence of α2-AP (% activity remaining) [11]: 50
B1: α2-antiplasmin (protein, UniProt P08697 40-491, looked up)
chain: NQEQVSPLTLLKLGNQEPGGQTALKSPPGVCSRDPTPEQTHRLARAMMAFTADLFSLVAQTSTCPNLILSPLSVALALSHLALGAQNHTLQRLQQVLHAGSGPCLPHLLSRLCQDLGPGAFRLAARMYLQKGFPIKEDFLEQSEQLFGAKPVSLTGKQEDDLANINQWVKEATEGKIQEFLSGLPEDTVLLLLNAIHFQGFWRNKFDPSLTQRDSFHLDEQFTVPVEMMQARTYPLRWFLLEQPEIQVAHFPFKNNMSFVVLVPTHFEWNVSQVLANLSWDTLHPPLVWERPTKVRLPKLYLKHQMDLVATLSQLGLQELFQAPDLRGISEQSLVVSGVQHQSTLELSEVGVEAAAATSIAMSRMSLSSFSVNRPFLFFIFEDTTGLPLFVGSVRNPNPSAPRELKEQQDSPGNKDFLQSLKGFPRGDKLFGPDLKLVPPMEEDYPQFGSPK

From patent US20250090644A1
